Test results as given in patent US20120213786A1 (ONCOMED PHARMACEUTICALS, published 2012).

T1: recombinant human Notch1 protein (human, UniProt P46531 1426-1731, limits assumed)
T1 construct: also called antigen
T1 sequence (looked up): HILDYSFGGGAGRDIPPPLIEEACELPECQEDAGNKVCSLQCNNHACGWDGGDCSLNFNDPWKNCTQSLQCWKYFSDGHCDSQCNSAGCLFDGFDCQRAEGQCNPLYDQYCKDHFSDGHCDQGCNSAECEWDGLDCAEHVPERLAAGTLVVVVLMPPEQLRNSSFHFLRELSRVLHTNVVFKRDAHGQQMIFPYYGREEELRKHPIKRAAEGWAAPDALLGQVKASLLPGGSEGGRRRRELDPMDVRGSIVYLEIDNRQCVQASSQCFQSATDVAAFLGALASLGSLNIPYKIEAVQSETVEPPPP

B1: murine monoclonal antibody 52M51 (antibody, mouse IgG1, V domains shown)
VH: QVQLQQSGAELMKPGASVKISCKAAGYTMRGYWIEWIKQRPGHGLEWIGQILPGTGRTNYNEKFKGKATFTADTSSNTANMQLSSLTSEDSAVYYCARFDGNYGYYAMDYWGQGSSVTVSS
VL: QAVVTQESALTTSPGETVTLTCRSSTGAVTTSNYANWVQEKPDHLFTGLIGGTNNRAPGVPARFSGSLIGDKAALTITGAQTEDEAIYFCALWYSNHWVFGGGTKLTVLG
notes: Hybridoma-derived mouse antibody; also called anti-Notch1 antibody 52M51; ATCC PTA-9405
B2: humanized antibody 52M51H4L3 (antibody, human IgG2, lambda, V domains shown)
VH: QVQLVQSGAEVKKPGASVKISCKVSGYTLRGYWIEWVRQAPGKGLEWIGQILPGTGRTNYNEKFKGRVTMTADTSTDTAYMELSSLRSEDTAVYYCARFDGNYGYYAMDYWGQGTTVTVSS
VL: SQAVVTQEPSLTVSPGGTVTLTCRSSTGAVTTSNYANWFQQKPGQAPRTLIGGTNNRAPGVPARFSGSLLGGKAALTLSGAQPEDEAEYYCALWYSNHWVFGGGTKLTVLG
notes: Heavy chain 52M51-H4 (human IgG2 constant region) with light chain 52M51 L3 (human IgLC1 constant region); also called humanized variant of 52M51; ATCC PTA-9549
B3: humanized antibody 52M51H4L4 (antibody, human IgG2, lambda, V domains shown)
VH: B2 VH
VL: SQTVVTQEPSFSVSPGGTVTLTCRSSTGAVTTSNYANWYQQTPGQAPRTLIGGTNNRAPGVPDRFSGSILGNKAALTITGAQADDESDYYCALWYSNHWVFGGGTKLTVLG
notes: Heavy chain 52M51-H4 (human IgG2 constant region) with light chain 52M51 L4 (human IgLC1 constant region)

What follows are binders tested against T1, recombinant human Notch1 protein (assay: SPR (Biacore 2000), recombinant human Notch1 amine-coupled to CM5 chip, antibody injected, global fit).
Protocol: The affinities for human and mouse Notch1 were determined using a Biacore 2000 instrument. Briefly, recombinant human and mouse Notch1 proteins were immobilized on a CM5 chip using standard amine based chemistry (NHS/EDC). Different antibody concentrations were injected over the protein surfaces and kinetic data were collected over time. The data was fit using the simultaneous global fit equation to yield dissociation constants (KD, nM) for each Notch1 (Table 2).

Row | Kd [nM] | Binder
1 | 2.86 | B1
2 | 4.33 | B2
3 | 7.35 | B3
